± gives the standard deviation.

The values below come from the supplement of paper PMC10567573.

A short description of the data set: protein stability index of a GFP-peptide fusion (GPS, HEK-293T) (PSI 1-6); higher = more stable. As to conditions: c terminus: a fixed tail appended.
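Note: 24-mer peptide tiles fused after GFP, lentivirally expressed, FACS-sorted into six equal bins by GFP/DsRed ratio, decoded by Illumina sequencing, PSI is the read-weighted mean bin number.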

With PEPEDEPGGPGAMTESLEASEFLE [RSPH3], the protein stability index runs as follows: (treatment: DMSO) 5.7 ± 0.12; (treatment: MLN4924 1 uM, 8 h) 5.48 ± 0.2. Taken in the same sequence, the figures for KKIYEAKRFTDAGFEHYDLFFIDG [CDC14A] were 2.36 ± 0.29 and 2.34 ± 0.23.

For KSKAYTVVGTPCYISPELCEGKPY [NEK8], the protein stability index was found to be 2.83 ± 0.084 (treatment: DMSO) and 3.03 ± 0.27 (treatment: MLN4924 1 uM, 8 h). NGDDMFVTFAAMQAQQGRSSLVWL [MCOLN1]: the protein stability index is, setting by setting: (treatment: DMSO) 3.18 ± 0.54; (treatment: MLN4924 1 uM, 8 h) 2.83 ± 0.48.

As for MGVGKASASDGSSFVVARYFPAGN [GLIPR2], the protein stability index is 3.13 ± 0.26 (treatment: DMSO) and 2.96 ± 0.26 (treatment: MLN4924 1 uM, 8 h).

Consider MGESSEDIDQMFSTLLGEMDLLTQ [APBB1IP], for which the protein stability index is, setting by setting: (treatment: DMSO) 4.25 ± 0.11; (treatment: MLN4924 1 uM, 8 h) 4.08 ± 0.32. As to QKEQQERLREAAALGDIREVQKLV [ANKRD40], the protein stability index (treatment: DMSO) turned out to be 4.67 ± 0.25 and the protein stability index (treatment: MLN4924 1 uM, 8 h) amounted to 4.74 ± 0.25. SIEYDSEPFGKERDAAIKKLATEA [CRY1] showed a protein stability index (treatment: DMSO) of 5.18 ± 0.14 and a protein stability index (treatment: MLN4924 1 uM, 8 h) of 4.87 ± 0.7. The like results for CLDSPGPLDSKENLENPMRRIHSL [CDC25A] were, in that order, 4.27 ± 0.19 and 3.91 ± 0.26. Taken in the same sequence, the figures for RKRIHDSRVAGFNPALQLILTRTD [TOR1AIP2] were 4.2 ± 0.17 and 4.18 ± 0.19. On to IVMCVQIKCFHEIITIGYNVYHSY [CDS2], for which the protein stability index reads like this: (treatment: DMSO) 3.32 ± 0.42; (treatment: MLN4924 1 uM, 8 h) 3.36 ± 0.66. Sequence KERQKKDNHNLIERRRRFNINDRI [TFE3] displayed a protein stability index (treatment: DMSO) of 3.95 ± 0.36 and a protein stability index (treatment: MLN4924 1 uM, 8 h) of 4.08 ± 0.14. Taken in the same sequence, the figures for AVEAGQEECAKWLLLNNANPNLSN [RIPK4] were 3.82 ± 0.25 and 4.26 ± 0.47.

With WMQVASLNEKRTFFHLSALKGYLY [KLHL13], the protein stability index reads like this: (treatment: DMSO) 2.76 ± 0.57; (treatment: MLN4924 1 uM, 8 h) 2.58 ± 0.36. Taken in the same sequence, the figures for QKILCSKSENARLVVQIDNAKLAA [KRT33B] were 3.21 ± 0.27 and 3.33 ± 0.26. For the sequence FVERVRKRGFEVVYMTEPIDEYCV [HSP90AB1], the protein stability index (treatment: MLN4924 1 uM, 8 h) worked out at 2.53 ± 0.26.

For the sequence DPDFKDLGALKPLPACEFEMGGSE [NETO1], the protein stability index was found to be 5.24 ± 0.22 (treatment: DMSO) and 5.27 ± 0.2 (treatment: MLN4924 1 uM, 8 h).

Take DPPSSSEECPAHLLEDPLCADVIL [RHOBTB2]: the protein stability index by setting is: (treatment: DMSO) 4.89 ± 0.21; (treatment: MLN4924 1 uM, 8 h) 5.11 ± 0.23.

With HYFPVMKKCCIPETRRRMEMAFNT [NLN], the protein stability index worked out at 2.35 ± 0.43 (treatment: DMSO) and 1.84 ± 0.27 (treatment: MLN4924 1 uM, 8 h). With PAHRFVLAAGSAVFDAMFNGGMAT [BTBD1], the protein stability index runs as follows: (treatment: DMSO) 2.49 ± 0.85; (treatment: MLN4924 1 uM, 8 h) 2.24 ± 0.55. As to REPQEDSQKDLENDPSVNSQAQET [TOR1AIP2], the protein stability index is, setting by setting: (treatment: DMSO) 5.68 ± 0.15; (treatment: MLN4924 1 uM, 8 h) 5.61 ± 0.2.

YVINWFMSFGPEIKLNTSQQGRNQ [FAM104B]: the protein stability index is, setting by setting: (treatment: DMSO) 2.67 ± 1.7; (treatment: MLN4924 1 uM, 8 h) 2.53 ± 0.71. The like results for FHNLVSLNLNYNCISDELLENLCE [FBXO39] were, in that order, 2.6 ± 0.18 and 2.66 ± 0.3. Taken in the same sequence, the figures for KVLGELNILPNTQKVTCFYQPAPY [TENT5D] were 2.5 ± 0.23 and 2.16 ± 0.3. Consider VGIYATNSAEACQYVITHAKVNIL [ACSBG2], for which the protein stability index (treatment: DMSO) was 2.73 ± 0.69 and the protein stability index (treatment: MLN4924 1 uM, 8 h) was determined as 2.38 ± 0.83. Taken in the same sequence, the figures for KAKRRNQEMQQKLVELSAENEKLH [CEBPD] were 4.97 ± 0.67 and 4.8 ± 0.097. The like results for GGGDEDGSLGSRAEPAPRAREGGG [SMAD6] were, in that order, 5.55 ± 0.17 and 5.51 ± 0.4. On to AEGRVVGRKDITSILRAPAYPLEL [MOSPD3], for which the protein stability index runs as follows: (treatment: DMSO) 3.27 ± 0.19; (treatment: MLN4924 1 uM, 8 h) 3.33 ± 0.18.

With QTSSSTFGGGSTRGGSLLAGGGGF [KRT15], the protein stability index runs as follows: (treatment: DMSO) 3.57 ± 0.17; (treatment: MLN4924 1 uM, 8 h) 3.7 ± 0.23. The like results for TNLTWDQVITLDQVLDEVIPIHGK [TENT5D] were, in that order, 2.47 ± 0.16 and 2.61 ± 0.3. Taken in the same sequence, the figures for FLDILRRADKNDDGKLSFEEFKAY [NECAB1] were 2.83 ± 0.23 and 2.93 ± 0.34. The like results for NRDEHSSRGYRNHRSSRETRDYAP [RBMY1A1] were, in that order, 4.74 ± 0.072 and 4.63 ± 0.095.

On to LFPVFLATDYLRYKPVVLLQGLSL [SLC19A2], for which the protein stability index is 2.88 ± 0.41 (treatment: DMSO) and 2.84 ± 0.72 (treatment: MLN4924 1 uM, 8 h). Take PSPMPTHRSYLGPGSTSPLETSGN [SLC6A17]: the protein stability index is, setting by setting: (treatment: DMSO) 4.13 ± 0.29; (treatment: MLN4924 1 uM, 8 h) 4.47 ± 0.26. Taken in the same sequence, the figures for KPPKPPDKPLMPYMRYSRKVWDQV [SMARCE1] were 2.08 ± 0.33 and 2.53 ± 0.36. The like results for NVVTCAAGILSNLTCNNYKNKMMV [CTNNB1] were, in that order, 2.69 ± 0.41 and 2.46 ± 0.24. Taken in the same sequence, the figures for AKMAGIGIREASSGGGGSSSNFHI [KRT15] were 3.16 ± 0.4 and 3.14 ± 0.27. LQGFDQLRLEGLLCDVTLMPGDTD [KLHL13]: the protein stability index is 3.61 ± 0.36 (treatment: DMSO) and 3.88 ± 0.32 (treatment: MLN4924 1 uM, 8 h). Taken in the same sequence, the figures for EIARREKELEARVRKPAEAERYKL [FLOT1] were 4.4 ± 0.1 and 4.45 ± 0.22. Taken in the same sequence, the figures for VQKSIYSEFLKRFVEATRKWKVGI [ALDH8A1] were 2.75 ± 0.91 and 2.83 ± 0.54. Taken in the same sequence, the figures for TTPPGHGTLDNSKSMKPYNYCSAY [NEUROD6] were 3.27 ± 0.18 and 3.25 ± 0.17. Regarding LKTKDGKLPFCAMGVSSVIHPKNP [CPOX], the protein stability index is 3.17 ± 0.34 (treatment: DMSO) and 3.17 ± 0.51 (treatment: MLN4924 1 uM, 8 h).

Turning to GEHKDRIERQWGNLLGEGQHKCDE [ZSCAN9], the protein stability index runs as follows: (treatment: DMSO) 4.88 ± 0.4; (treatment: MLN4924 1 uM, 8 h) 4.93 ± 0.14. Taken in the same sequence, the figures for WTVANMEEIKKLTTDPDLILEVLR [LARP4] were 2.15 ± 0.29 and 2.62 ± 0.27.

Regarding AFHGLSLGLSLTNGLALGPDLNIL [PSD2], the protein stability index is, setting by setting: (treatment: DMSO) 2.57 ± 0.56; (treatment: MLN4924 1 uM, 8 h) 2.54 ± 0.5. Regarding AHGADPTHRLKDGSTMLIEAAKGG [ANKRD17], the protein stability index reads like this: (treatment: DMSO) 4.7 ± 0.31; (treatment: MLN4924 1 uM, 8 h) 4.91 ± 0.16. Taken in the same sequence, the figures for HSDMAAIVKAMASPESGLEVRDRM [DVL3] were 3.81 ± 0.23 and 3.81 ± 0.03.

Regarding IVVATLPIPVVFVLRHFHLLSDGS [SLC6A17], the protein stability index reads like this: (treatment: DMSO) 2.92 ± 0.56; (treatment: MLN4924 1 uM, 8 h) 3.21 ± 0.24. VDNISTLDSEIKKNSDGMEAAGVQ [CD207]: the protein stability index reads like this: (treatment: DMSO) 5.4 ± 0.37; (treatment: MLN4924 1 uM, 8 h) 5.49 ± 0.23. CQPRNLDKERAVLLQRRKRENMSD [KMT2E]: the protein stability index is, setting by setting: (treatment: DMSO) 4.32 ± 0.13; (treatment: MLN4924 1 uM, 8 h) 4.29 ± 0.12.

VGRLKRERSMSENAVRQNGQLVRN [MFF]: the protein stability index by setting is: (treatment: DMSO) 5 ± 0.16; (treatment: MLN4924 1 uM, 8 h) 4.94 ± 0.078. The like results for VILSEIKEAVAALPPDVTTQSVMG [TCF25] were, in that order, 2.77 ± 0.43 and 2.65 ± 0.2.

As to TEALILQLFSQIGPCKNCKMIMDT [TIA1], the protein stability index by setting is: (treatment: DMSO) 2.75 ± 0.37; (treatment: MLN4924 1 uM, 8 h) 2.53 ± 0.41. Taken in the same sequence, the figures for SLCKALAQKLTIRLSSRYRYGQLI [TRIP13] were 3.01 ± 0.47 and 3.16 ± 0.66. The like results for RRHCQACRLKRCVDIGMMKEFILT [VDR] were, in that order, 2.77 ± 0.72 and 2.15 ± 0.28. On to DEAELDYLMDVLVGTQALERPPGP [SERTAD1], for which the protein stability index is, setting by setting: (treatment: DMSO) 3.74 ± 0.35; (treatment: MLN4924 1 uM, 8 h) 3.87 ± 0.33. Consider EKWAEGGGHSRERADEPQWSLYPS [CHGB], for which the protein stability index by setting is: (treatment: DMSO) 4.28 ± 0.22; (treatment: MLN4924 1 uM, 8 h) 4.24 ± 0.064. The like results for PAATWNLEEKRLTWRLPDVSEAGG [FCHO1] were, in that order, 4.49 ± 0.24 and 4.58 ± 0.25. Regarding TYRIRIEMSKDALPEKACQLDSRY [FBXO3], the protein stability index (treatment: DMSO) was 2.37 ± 0.12 and the protein stability index (treatment: MLN4924 1 uM, 8 h) was 2.57 ± 0.35.

For VATNSAGTRYSAPANLYVRELREV [PTPRD], the protein stability index is, setting by setting: (treatment: DMSO) 3.05 ± 0.32; (treatment: MLN4924 1 uM, 8 h) 3.45 ± 0.37. Taken in the same sequence, the figures for ELDDPGQPVSLRRRKREVLVEDMV [ZNF24] were 4.66 ± 0.12 and 4.68 ± 0.17. For the sequence MESLISAPLVKTLEKEEEKDLVMY [CDC25B], the protein stability index runs as follows: (treatment: DMSO) 4.56 ± 0.062; (treatment: MLN4924 1 uM, 8 h) 4.61 ± 0.24. Taken in the same sequence, the figures for LEPEAAEEALENGPKESLPVIAAP [ACBD3] were 5.67 ± 0.25 and 5.64 ± 0.24.

Regarding TMDNKKGRRYEAVKWMVVFAIGVC [CLCN6], the protein stability index (treatment: DMSO) worked out at 2.58 ± 0.35 and the protein stability index (treatment: MLN4924 1 uM, 8 h) is 2.64 ± 0.82. The like results for LFPGRVSVDLMLGLPAQQVGPWLG [RSAD1] were, in that order, 2.41 ± 0.86 and 2.32 ± 0.9. Consider EHLEILQKEDVKPYQVNGVNPAYP [ETS1], for which the protein stability index came to 4.1 ± 0.11 (treatment: DMSO) and 4.05 ± 0.28 (treatment: MLN4924 1 uM, 8 h). Taken in the same sequence, the figures for QTDHIKGIRQITSDDFCTFQMVLE [GFOD1] were 2.69 ± 0.28 and 2.8 ± 0.25. The like results for YHPEEFVCSQCGKVLEEGGFFEEK [PDLIM7] were, in that order, 3.94 ± 0.5 and 3.93 ± 0.57. Taken in the same sequence, the figures for VEVDAAPAVDLNQVLNETRNQYEA [KRT33B] were 4.91 ± 0.29 and 5.17 ± 0.21. Take GQGLKSYMTKPSKSLLPHLKTGNS [RTP4]: the protein stability index reads like this: (treatment: DMSO) 3.62 ± 0.16; (treatment: MLN4924 1 uM, 8 h) 3.63 ± 0.25. Taken in the same sequence, the figures for EEKSKQFLDLMETIDKQREEMAKS [LRRC45] were 5.28 ± 0.25 and 5.3 ± 0.16. In turn, WDSGCLAPPSTRTSHSLPESSVPS [PLEKHN1] had a protein stability index (treatment: DMSO) of 4.4 ± 0.59 and a protein stability index (treatment: MLN4924 1 uM, 8 h) of 4.64 ± 0.23. Taken in the same sequence, the figures for SPDKDSIMNIEPAILVMHHSMKPH [INTS3] were 3.32 ± 0.3 and 3.5 ± 0.2.
